# Experimental data as given in patent US20120149645A1, “COMPOSITIONS AND MODULATION OF MYOCYTE ENHANCER FACTOR 2 (MEF2)” (EMORY UNIVERSITY, priority 2010, published 2012).
# Tests used:
# [1] = system: mitochondrial complex I; test: Mitochondrial complex protein level and activity (BN-PAGE, in-gel staining, quantitative assays); format: cell-based, mouse; settings: over-expression in SN4741 cells
# Description: (A) Requirement of mitochondrial MEF2D for complex I activity. […] Control indicates the control vector group. (B) Over-expression of ND6 rescued complex I activity reduced by Mt2Ddn. Control indicates the control vector group. (C) Measurement of various complex activities. […] Control indicates the control vector group. (D) Effects of over-expression of Mt2D or Mt2Ddn on mitochondrial function. Mt2Ddn reduced cellular ATP level and elevated H2O2 production in SN4741 cells (n=4; *p<0.05; **P<0.01). Control indicates the control vector group.
# Mitochondrial complex I activity was evaluated initially by blue native-polyacrylamide gel electrophoresis (BN-PAGE) and in-gel activity staining. This assay measures total complex I activity. Rotenone sensitive complex I activity and activities of other mitochondrial complexes were further measured by methods described by Antoni et al., J Biol Chem, 1998, 273:14210-14217. Briefly, parallel assays were performed to measure complex I activity at 340 nm using 2,3-dimethoxy-5-methyl-6-n-decyl-1,4-benzoquinone (DB) (50 μM) as acceptor and NADH (0.8 mM) as donor, in 50 mM Tris (pH 8.0) buffer supplemented with 5 mg/ml BSA either without or with the addition of 4 μM rotenone, which gave total and rotenone insensitive complex I activities, respectively. The difference in value between the two provided a quantified measure of the rotenone-sensitive activity. Mitochondrial membrane potential was detected using a kit (cat. no. 280002) from Stratagene following the procedures provided by the manufacturer. The fluorescent dye JC-1 (5,5′,6,6′-tetrachloro-1,1′,3,3′-tetraethylbenzimidazolyl carbocyanine iodide) stains mitochondria red in a membrane potential dependent manner. Briefly, cells were seeded in 96-well plates at 4×10^4 cells/well with 100 μl culture medium and incubated at 33° C. with 5% CO2. After treatment, 10 μl/well of premixed JC-1 staining solution was added, and the cells were incubated for an additional 30 min under the same conditions. After thorough washes, 100 μl assay buffer was added to each well. Fluorescence signal was detected with excitation and emission at 520 nm and 590 nm, respectively, on a multi-well plate reader (Bio-Tek). Cellular ATP and H202 were measured by Bioluminescent Somatic Cell ATP Assay Kit (Sigma) and Hydrogen Peroxide Assay Kit (Cayman), respectively.
# [2] = system: SN4741 cells; test: WST-1 cell viability assay; format: cell-based, mouse
# Method: (§1) (A) Reduced binding of MEF2D to ND6 after neurotoxin treatment. SN4741 cells were treated with MPP+ (25 μM) or rotenone (Rot, 100 nM) for 12 hours. […] Control indicates untreated. […] Control indicates untreated. (C) Immunocytochemical analysis of mitochondrial MEF2D after MPP+ and rotenone treatment. SN4741 cells treated as described in (A) were stained (scale bar, 10 μm). […] Experiments were repeated four times. Control indicates untreated. […] SN4741 cells were treated with MPP+ after infection with the control, Mt2Ddn or Mt2DVP16 or MtND6 lentiviruses for 24 hours (upper graph: different doses of MPP+ for 24 hours; lower graph: 5 μM of MPP+ for different times). Cell viability was measured by WST-1 assay (n=4; *p<0.05; **P<0.01). Control indicates the control vector group.
# WST-1 assay was done using a kit (cat. no. 11644807001) from Roche and following procedures provided by the manufacturer. WST-1 (4-[3-(4-Iodophenyl)-2-(4-nitrophenyl)-2H-5-tetrazolio]-1,3-benzene disulfonate) is a water-soluble tetrazolium salt whose cleavage by cellular enzymes correlates with cell viability. Cells were seeded in 96-well plates and treated as indicated. Than 10 μl/well of premixed WST-1 Cell Proliferation Reagent was added, and the cells were incubated for an additional 4 hr under the same conditions. Absorbance at 450 nm was measured on a multi-well plate reader (Bio-Tek).
# [3] = system: TH+ neurons in SNpc; test: MPTP mouse model of PD, TH immunohistochemistry in SNpc; settings: lentivirus injected into SNpc of mouse brain, then MPTP
# Method: (B) Role of mitochondrial MEF2D-ND6 pathway in maintaining TH+ neurons in SNpc in a MPTP mouse model of PD. For each group, three mice received stereotactical injection of control vector (GFP) or Mt2Ddn lentivirus in SN. Two weeks later, mice were exposed to MPTP. After treatment for seven days, the survival of lentivirus-transduced TH+ neurons in SN was determined by immunohistochemistry (left panel). Quantitative analysis of nine mice from three independent experiments was shown at the bottom panel (scale bar, 30 μm; **P<0.01).
# [4] = system: MEF2D binding to ND6; test: ChIP assay of MEF2D binding to the ND6 MEF2 site in purified mitochondria; format: cell-based, mouse; settings: construct over-expressed in SN4741 cells
# Description: (§2) (A) Mitochondria-targeting MEF2D (Mt2D) and mitochondria-targeting dominant-negative MEF2D (Mt2Ddn), which lacks the transactivation domain (TAD). […] Control indicates the control vector group. (C) Effects of Mt2D or Mt2Ddn on ND6 expression in SN4741 cells. Over-expression of Mt2Ddn in SN4741 cells reduced ND6 but not PPAR-γ coactivator 1 (PGC1) expression by western blotting (n=4, **p<0.01). Control indicates the control vector group. (D) Effects of over-expression of Mt2D or Mt2Ddn on mRNA levels of mitochondria encoded genes. […] Control indicates the control vector group. (E) Effects of Mt2D or Mt2Ddn on mtDNA L-strand transcription initiation in vitro (n=3; **P<0.01). A human mtDNA fragment containing mitochondrial L-strand promoter (LSP) and ND6 gene was used in the in vitro transcription assay. […] (F) Effects of Mt2D or Mt2Ddn on mtDNA de novo transcription in vivo (n=3; **P<0.01). Control (−) is without primers. Control (+) indicates the control vector group.
# as §1
# Andres et al., J Biol Chem, 1995, 270:23246-23249. Moreover, this putative MEF2 binding site is conserved among several species. To test whether MEF2D binds to this putative MEF2 site, electronic mobility shift assay (EMSA) was performed. N-terminal MEF2D formed a complex with the labeled probe containing the ND6 MEF2 site. […] To corroborate this finding, a chromatin immunoprecipitation (ChIP) assay was carried out using highly purified mitochondria. […] ND6 but not ND2 based primers could amplify the bound sequence (FIG. 3C). Sequence analysis of the DNA bound by MEF2D after amplification confirmed the presence of the ND6 MEF2 site (FIG. 3D).
# [5] = system: human mtDNA fragment containing mitochondrial L-strand promoter (LSP) and ND6 gene; test: In vitro mtDNA L-strand transcription assay; format: biochemical
# Description: as §2
# [6] = system: MEF2D and ND6 proteins; test: Western blotting of MEF2D, ND6 and PGC1 protein levels in SN4741 cells; format: cell-based, mouse; settings: construct over-expressed in SN4741 cells
# Description: as §2, §1
# (A) Diagrams of Mt2DVP16 and MtND6. Mt2DVP16 was constructed by fusion of transactivation domain (TAD) of VP16 with DNA-binding domain of MEF2D and a mitochondria-targeting sequence (Mito). […] (C) Over-expression of Mt2DVP16 attenuated MEF2D siRNA-induced reduction of ND6 expression (n=3, **P<0.01).
# [7] = non-denature gel electrophoresis
molecule,measurement,setting,value
"Mt2Ddn: Mitochondria-targeting dominant-negative MEF2D: mouse MEF2D 1-131aa with mitochondria-targeting signal, lacks the transactivation domain (protein, UniProt Q63943 1-131, looked up, fragment, mitochondria-targeting signal added) MGRKKIQIQRITDERNRQVTFTKRKFGLMKKAYELSVLCDCEIALIIFNHSNKLFQYASTDMDKVLLKYTEYNEPHESRTNADIIETLRKKGFNGCDSPEPDGEDSLEQSPLLEDKYRRASEELDGLFRRY",mitochondrial complex I activity,[1],significantly reduced
same,protein level of complex II-V,[1]; [7],no effect
same,protein level of mitochondrial complex I,[1]; [7],markedly reduced
same,sensitivity of cells to low dose MPP+ toxicity,"[2]; SN4741 cells infected with lentivirus 24 hours, then different doses of MPP+ for 24 hours",clearly sensitized
same,cellular viability over time,"[2]; SN4741 cells infected with lentivirus, 5 μM MPP+ for different times",impaired
same,loss of TH signal in DA neurons in vivo,[3],significantly accelerates
same,binding of full length MEF2D to the ND6 MEF2 site,[4],modulated
same,level of L-strand promoter (LSP) transcripts,[5],reduces
same,ND6 protein level / expression,[6],marked reduction
same,level of PGC1 (nuclear target of MEF2),[6],did not alter
